B1: LS21 (scFv)
scFv: EVQLVQSGAEVKKPGESLKVSCKASGYTFTSYYMHWVRQAPGQGLEWMGIINPSGGSTSYAQKFQGRVTMTRDTSTSTVYMELSSLRSEDTAVYYCARGSAYYYDFADYWGQGTLVTVSSGGGGSGGGGSGGGGSQPVLTQPSSVSVAPGQTATISCGGHNIGSKNVHWYQQRPGQSPVLVIYQDNKRPSGIPERFSGSNSGNTATLTISGTQAMDEADYYCQVWDNYSVLFGGGTKLTVL
notes: also called positive control

Legend:
[1] = target: Human CD16B (NA2) on NK92mi/CD16B (NA2) cells (human) (UniProt O75015); assay: flow cytometry on NK92mi/CD16B(NA2) cells, anti-human IgG Fc detection
[2] = target: Human CD16A (V158) on NK92mi/CD16A V158 cells (human) (UniProt P08637); assay: flow cytometry on NK92mi/CD16A V158 cells, anti-human IgG Fc detection
Sequence of Human CD16A (V158) on NK92mi/CD16A V158 cells (human) (P08637 17-254 F176V limits assumed): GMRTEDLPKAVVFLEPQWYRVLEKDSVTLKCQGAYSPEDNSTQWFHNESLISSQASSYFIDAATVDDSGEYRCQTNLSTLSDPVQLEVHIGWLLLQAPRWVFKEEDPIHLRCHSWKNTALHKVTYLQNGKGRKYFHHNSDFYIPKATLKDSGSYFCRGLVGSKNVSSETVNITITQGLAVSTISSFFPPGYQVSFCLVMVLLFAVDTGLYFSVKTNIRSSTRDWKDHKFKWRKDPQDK

[3] = target: Human CD16B (NA1) on NK92mi/CD16B (NA1) cells (human) (UniProt O75015); assay: flow cytometry on NK92mi/CD16B(NA1) cells, anti-human IgG Fc detection
Sequence of Human CD16B (NA1) on NK92mi/CD16B (NA1) cells (human) (O75015 other isoform, or with tags, fused parts or gaps limits assumed): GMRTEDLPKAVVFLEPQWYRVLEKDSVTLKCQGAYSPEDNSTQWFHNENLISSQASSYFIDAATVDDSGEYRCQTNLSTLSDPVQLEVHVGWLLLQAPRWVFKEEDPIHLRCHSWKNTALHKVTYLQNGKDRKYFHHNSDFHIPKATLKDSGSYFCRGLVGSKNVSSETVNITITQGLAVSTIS

[4] = target: T1, human CD16B-His6 (SH) (human, UniProt O75015 17-200); assay: antigen ELISA, coated human CD16B-His6 (SH), HRP anti-human IgG
T1 construct: Bought ECD fragment (Sino Biologics); also called CD16B SH allotype; human CD16B (SH); not shown: six-histidine tag
T1 sequence (O75015 17-200): as the sequence (O75015 other isoform, or with tags, fused parts or gaps limits assumed) above, with R20S, D66N, V90I counted along it

Sequence of Human CD16B (NA2) on NK92mi/CD16B (NA2) cells (human) (O75015 17-200 N65S limits assumed): as the sequence (O75015 other isoform, or with tags, fused parts or gaps limits assumed) above, with R20S, N49S, D66N, V90I counted along it

Molecule | EC50 [1] [µg/mL] | EMAX [1] | EC50 [2] [µg/mL] | EMAX [2] | EC50 [3] [µg/mL] | EMAX [3] | binding result [4]
Human IgG (antibody) | 0.314 | 7.66 | 0.0112 | 7.55 | 10.3 | 7.46 | –
B1 | – | – | – | – | – | – | no binding (tested: 1 ug/ml)

From patent publication US20260008853A1 (BEONE MEDICINES I, published 2026)
